For one assay, the target named is HER3 20-531-Fc (human). Nature of the assay: ELISA. In general terms: In an ELISA, binding on a coated surface is turned into a signal by an enzyme label.
The target in the next assay is T1, HER3 20-358-Fc (human).
T1 chain: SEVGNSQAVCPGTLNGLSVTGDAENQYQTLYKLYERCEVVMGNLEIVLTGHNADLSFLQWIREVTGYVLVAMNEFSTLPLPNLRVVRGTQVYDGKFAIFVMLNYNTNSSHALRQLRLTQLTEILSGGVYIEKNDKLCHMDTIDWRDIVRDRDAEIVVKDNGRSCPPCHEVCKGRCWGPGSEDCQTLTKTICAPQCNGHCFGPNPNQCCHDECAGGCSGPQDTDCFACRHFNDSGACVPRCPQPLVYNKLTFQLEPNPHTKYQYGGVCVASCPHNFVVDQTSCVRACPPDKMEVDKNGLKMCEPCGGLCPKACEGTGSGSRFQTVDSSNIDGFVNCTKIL
Nature of the assay: ELISA.

In assay [1] the target is HER3-His ECD (human). Nature of the assay: other, QCM Attana 25C.
For assay [2], the target named is HER3 (cell surface) (human). The assay is described as follows: FACS, SKBR-3.
The target of assay [3] is HER3-His ECD (human). The assay is described as follows: ELISA.
For a further assay, the target named is T2, HER3 458-643-Fc (human).
T2 chain: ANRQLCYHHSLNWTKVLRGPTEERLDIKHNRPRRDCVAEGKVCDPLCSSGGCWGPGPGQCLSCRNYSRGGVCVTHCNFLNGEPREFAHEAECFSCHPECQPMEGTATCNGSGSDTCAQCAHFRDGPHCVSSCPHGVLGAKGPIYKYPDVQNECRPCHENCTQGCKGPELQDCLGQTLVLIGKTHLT
Nature of the assay: ELISA.

Assay [4] deals with HER3 (cell surface) (human). Nature of the assay: FACS, FaDu. For orientation: In flow cytometry, cells or beads pass a laser one at a time.
The target in assay [5] is HER3-Fc ECD (human). The assay is described as follows: ELISA.
In assay [6] the target is HER3 (cell surface) (human). Nature of the assay: FACS, FaDu. This is another data set of the same source.
The target of assay [7] is HER3 (cell surface) (human). Nature of the assay: FACS, MCF-7.
The next assay deals with T3, HER3 395-643-Fc (human).
T3 chain: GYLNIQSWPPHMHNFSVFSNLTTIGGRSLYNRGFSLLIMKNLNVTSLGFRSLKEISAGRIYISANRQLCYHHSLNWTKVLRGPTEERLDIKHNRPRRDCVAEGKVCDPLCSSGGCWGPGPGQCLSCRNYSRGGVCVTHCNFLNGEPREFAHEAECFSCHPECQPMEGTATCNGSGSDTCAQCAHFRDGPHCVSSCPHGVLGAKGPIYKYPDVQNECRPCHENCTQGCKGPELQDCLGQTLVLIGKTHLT
Nature of the assay: ELISA.

A further assay concerns the target T4, HER3 359-587-Fc (human).
T4 chain: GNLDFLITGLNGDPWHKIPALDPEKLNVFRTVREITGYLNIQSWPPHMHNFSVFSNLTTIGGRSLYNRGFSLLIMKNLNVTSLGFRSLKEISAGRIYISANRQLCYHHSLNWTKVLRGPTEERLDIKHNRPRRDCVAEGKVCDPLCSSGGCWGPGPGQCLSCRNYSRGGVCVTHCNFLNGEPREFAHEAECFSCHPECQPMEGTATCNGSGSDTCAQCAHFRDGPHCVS
The assay is described as follows: ELISA.

The next assay concerns the target HER3 20-550-Fc (human). Nature of the assay: ELISA.
In assay [8] the target is HER3-Fc ECD (human). Nature of the assay: other, QCM Attana bivalent.
Another assay deals with T5, HER3 DIV-Fc (human).
T5 chain: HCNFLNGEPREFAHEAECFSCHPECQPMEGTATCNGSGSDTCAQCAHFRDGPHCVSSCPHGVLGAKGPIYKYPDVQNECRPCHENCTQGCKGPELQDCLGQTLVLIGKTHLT
Nature of the assay: ELISA.

The target in assay [9] is HER3-His ECD (human). The assay is described as follows: ELISA. This is another data set of the same source.
Assay [10] concerns the target HER3-His ECD (human). Nature of the assay: ELISA. The source holds these as a separate data set.
In assay [11] the target is HER3 (cell surface) (human). Nature of the assay: FACS, FaDu. This is another data set of the same source.
The target of the next assay is T6, HER3 329-550-Fc (human).
T6 chain: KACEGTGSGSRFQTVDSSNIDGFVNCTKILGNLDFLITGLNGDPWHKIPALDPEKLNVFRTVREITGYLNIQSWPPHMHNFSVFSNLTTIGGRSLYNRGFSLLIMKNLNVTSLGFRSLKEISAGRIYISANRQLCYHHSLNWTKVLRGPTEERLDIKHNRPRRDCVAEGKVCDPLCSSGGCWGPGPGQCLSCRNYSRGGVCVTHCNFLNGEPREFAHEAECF
Nature of the assay: ELISA.

Another assay deals with T7, HER3 359-643-Fc (human).
T7 chain: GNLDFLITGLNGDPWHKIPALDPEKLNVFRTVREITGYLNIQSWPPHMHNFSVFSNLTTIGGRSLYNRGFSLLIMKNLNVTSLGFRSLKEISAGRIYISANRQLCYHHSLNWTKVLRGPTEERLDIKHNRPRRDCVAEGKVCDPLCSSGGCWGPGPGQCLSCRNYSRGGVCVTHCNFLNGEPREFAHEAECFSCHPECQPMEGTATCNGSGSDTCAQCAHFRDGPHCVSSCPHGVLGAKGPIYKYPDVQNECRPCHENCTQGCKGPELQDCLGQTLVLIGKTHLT
The assay is described as follows: ELISA.

Our source for the binding result, Kd and EC50 values is patent US11008402 (dated 2021).

Values joined by “and” are separate entries in the source; they are usually repeats but may differ in a detail not shown here. Identical values can stand only once. Like-named read-outs stand apart in the source and are kept apart here.

B1: IgG 3-43 (antibody, V domains shown)
VH: QVQLQQSGPGLVKPSQTLSLTCAISGDSVSSNRAAWNWIRQSPSRGLEWLGRTYYRSKWYNDYAQSLKSRITINPDTPKNQFSLQLNSVTPEDTAVYYCARDGQLGLDALDIWGQGTMVTVSS
VL: QAGLTQPPAVSVAPGQTASITCGRDNIGSRSVHWYQQKPGQAPVLVVYDDSDRPAGIPERFSGSNYENTATLTISRVEAGDEADYYCQVWGITSDHVVFGGGTKLTVLG
With B1, the binding result with HER3 20-531-Fc, with HER3 20-358-Fc, with HER3 458-643-Fc, in the assay with HER3 395-643-Fc, in the assay with HER3 359-587-Fc and with HER3 20-550-Fc was “no binding” throughout. In addition, the binding result in the assay with HER3 DIV-Fc, with HER3 329-550-Fc and with HER3 359-643-Fc was “no binding” in each case. Further, the values for the Kd with HER3-His ECD [1] and with HER3-Fc ECD [8] were 11200 pM and 220 pM, respectively. Besides, the 50% effective concentration (EC50) (commonly the midpoint of the concentration-response curve) was 22 pM with HER3 (cell surface) [2]; 330 pM with HER3-His ECD [3]; 3 pM with HER3 (cell surface) [4]; 270 pM and 400 pM in the assay with HER3-Fc ECD [5]; 6 pM in the assay with HER3 (cell surface) [6]; 21 pM with HER3 (cell surface) [7]. In addition, the EC50 with HER3-His ECD [9] was 230 pM; with HER3-His ECD [10] it was 330 pM and 540 pM; with HER3 (cell surface) [11], 300 pM.
